From publication PMC4271523, “Differential Effects of a Mutation on the Normal and Promiscuous Activities of Orthologs: Implications for Natural and Directed Evolution” (Molecular Biology and Evolution, 2014)

What was measured:
Test in all cases: purified protein
purified protein [1] = substrate: CC(=O)N[C@@H](CCC=O)C(=O)O; conditions: 1 mM NADP+, 100 mM potassium phosphate pH 7.6, room temperature, reverse (dehydrogenase) direction, promiscuous substrate, apparent KM, NAGSA in equilibrium with its hydrate
purified protein [2] = substrate: N[C@@H](CCC=O)C(=O)O; conditions: 1 mM NADP+, 100 mM potassium phosphate pH 7.6, room temperature, reverse (dehydrogenase) direction, apparent KM corrected to free GSA aldehyde/hydrate
purified protein [3] = substrate: CC(=O)N[C@@H](CCC=O)C(=O)O; assay type: biochemical, Bacillus subtilis; conditions: 1 mM NADP+, 100 mM potassium phosphate pH 7.6, room temperature, reverse (dehydrogenase) direction, promiscuous substrate, apparent KM, NAGSA in equilibrium with its hydrate
purified protein [4] = substrate: N[C@@H](CCC=O)C(=O)O; assay type: biochemical, Bacillus subtilis; conditions: 1 mM NADP+, 100 mM potassium phosphate pH 7.6, room temperature, reverse (dehydrogenase) direction, apparent KM corrected to free GSA aldehyde/hydrate
purified protein [5] = substrate: N[C@@H](CCC=O)C(=O)O; assay type: biochemical, Aliivibrio fischeri; conditions: 1 mM NADP+, 100 mM potassium phosphate pH 7.6, room temperature, reverse (dehydrogenase) direction, apparent KM corrected to free GSA aldehyde/hydrate
purified protein [6] = substrate: CC(=O)N[C@@H](CCC=O)C(=O)O; assay type: biochemical, Aliivibrio fischeri; conditions: 1 mM NADP+, 100 mM potassium phosphate pH 7.6, room temperature, reverse (dehydrogenase) direction, promiscuous substrate, apparent KM, NAGSA in equilibrium with its hydrate

B1: Salmonella enterica ProA (Salmonella enterica subsp. enterica serovar Typhimurium str. LT2) (protein)
chain: MLEQMGIAAKAASYKLALLSSGEKNRVLEKIADELEAQMESILSANVQDVEQARANGLSEAMLDRLALTPARLKAIADDVRQVCNLADPVGQVIDGGLLDSGLRLERRRVPLGVVGVIYEARPNVTVDVASLCLKTGNAVILRGGKETYRTNAATVRVIQKALKACGLPEAAVQAIDNPDRSLVNEMLRMDKYIDMLIPRGGAGLHKLCREQSTIPVITGGIGVCHIFVDSSADIAPALKIIVNAKTQRPSTCNTVETLLVHQDIAERFLPALSKQMAESGVTLHGDETVMQVLHGPAKLVPLKPEELDNEFLSLDLNVVVVENMDGAIAHIREHGTQHSDAILTCDMHNAARFVNEVDSAAVYVNASTRFTDGGQFGLGAEVAVSTQKLHARGPMGLEALTTYKWIGFGDGTIRA
In the case of B1, the Km (purified protein [1]) is reported as 2.6 ± 0.1 mM, the Km (purified protein [2]) is reported as 0.054 ± 0.012 mM and the kcat (purified protein [2]) is reported as 3.7 ± 0.5 s⁻¹. It also gave a kcat/Km (purified protein [2]) of 69000 ± 7000 M⁻¹ s⁻¹.

B2: Bacillus subtilis ProA (Bacillus subtilis subsp. subtilis str. 168) (protein)
chain: MSEVSVKAKLAKEAAAEMIMKTTAEKDEALSLIANGLRKELDFLLAENAKDIVNGKENGLTPDIIDRLSLDEKRIRDIADAVELLIDLADPIGDSLETIEKENGLFIEKIRVPLGVVGMIYEARPNVTVDAATLCLKTGNAVVLRGSSSAIHSNKALVSVIYRALEQSALPIHAVQLIEDTSRETAKELFTLNDGLDVLIPRGGKKLIDLVVRESTVPVLETGAGNCHIFIDETAKPQMAEKVVVNAKTQRPSVCNAIESLLIHKAWARQHGKELLDQLENAGVEIRGDELVCELHPSSKQASKEDWETEFLAPVLSVKTVENVQEAVKHIQQYGTNHSEAILTENDKNAVYFQTAVDAAAVYHNASTRFTDGFEFGYGAEIGISTQKLHARGPMGLPALTSTKYIIKGTGQIRE
notes: His-tagged, pTrcHisB, expressed in delta-argC delta-proA E. coli BW25113 (DE3)
Work on B2 yielded a Km (purified protein [3]) of 6.0 ± 1.5 mM, a kcat (purified protein [3]) of 0.0014 ± 0.0003 s⁻¹ and a kcat/Km (purified protein [3]) of 0.24 ± 0.015 M⁻¹ s⁻¹. For the same protein, the Km (purified protein [4]) was 0.15 ± 0.02 mM, the kcat (purified protein [4]) was 1.7 ± 0.2 s⁻¹ and the kcat/Km (purified protein [4]) was 11000 ± 1000 M⁻¹ s⁻¹.

B3: Bacillus subtilis ProA (Bacillus subtilis subsp. subtilis str. 168; E381A) (protein)
chain: MSEVSVKAKLAKEAAAEMIMKTTAEKDEALSLIANGLRKELDFLLAENAKDIVNGKENGLTPDIIDRLSLDEKRIRDIADAVELLIDLADPIGDSLETIEKENGLFIEKIRVPLGVVGMIYEARPNVTVDAATLCLKTGNAVVLRGSSSAIHSNKALVSVIYRALEQSALPIHAVQLIEDTSRETAKELFTLNDGLDVLIPRGGKKLIDLVVRESTVPVLETGAGNCHIFIDETAKPQMAEKVVVNAKTQRPSVCNAIESLLIHKAWARQHGKELLDQLENAGVEIRGDELVCELHPSSKQASKEDWETEFLAPVLSVKTVENVQEAVKHIQQYGTNHSEAILTENDKNAVYFQTAVDAAAVYHNASTRFTDGFEFGYGAAIGISTQKLHARGPMGLPALTSTKYIIKGTGQIRE
notes: as for B2
With B3 the Km (purified protein [3]) was 0.046 ± 0.019 mM, the kcat (purified protein [3]) was 0.0028 ± 0.0004 s⁻¹ and the kcat/Km (purified protein [3]) was 61 ± 14 M⁻¹ s⁻¹.

B4: Allivibrio fischeri ProA (Aliivibrio fischeri ES114) (protein)
chain: MNLTTMGQAAKAAAFDLAVAPTAQKNKALAIIADELEANKDAILAANEKDIKAAVEAGISEAMQDRLLLTEERLVGIANDVRNVINLNDPVGSEIDSKVLENGMSLSRRRVPIGVIGVIYEARPNVTIDIASLCLKTGNASILRGGKETFFSNMELVKVIQVALEKAGLPAASVQYIEKPDRELVSQLLTMDDYVDMIIPRGGAGLHKMCKENSSIPVIIGGFGISHAFVDESADLERALVVVDNSKAQRPSACNALDTLLVHEAVAPQFLALLANNMAGRVELVAEPKAYGLLKEFEGVSLREAQEGDFDTEWLSYTLGVKVVADVNEAAAHMQKHNASHSDTILTNNIESAEKFINTAGSAAVYVNASTRFTDGAQFGLGAEVAVSTQKLHARGPMGLEELTSYKWVGKADYLIRS
notes: as for B2
B4 gave a Km (purified protein [5]) of 0.046 ± 0.011 mM, a kcat (purified protein [5]) of 1.9 ± 0.2 s⁻¹ and a kcat/Km (purified protein [5]) of 42000 ± 6000 M⁻¹ s⁻¹.

B5: Allivibrio fischeri ProA (Aliivibrio fischeri ES114; E384A) (protein)
chain: MNLTTMGQAAKAAAFDLAVAPTAQKNKALAIIADELEANKDAILAANEKDIKAAVEAGISEAMQDRLLLTEERLVGIANDVRNVINLNDPVGSEIDSKVLENGMSLSRRRVPIGVIGVIYEARPNVTIDIASLCLKTGNASILRGGKETFFSNMELVKVIQVALEKAGLPAASVQYIEKPDRELVSQLLTMDDYVDMIIPRGGAGLHKMCKENSSIPVIIGGFGISHAFVDESADLERALVVVDNSKAQRPSACNALDTLLVHEAVAPQFLALLANNMAGRVELVAEPKAYGLLKEFEGVSLREAQEGDFDTEWLSYTLGVKVVADVNEAAAHMQKHNASHSDTILTNNIESAEKFINTAGSAAVYVNASTRFTDGAQFGLGAAVAVSTQKLHARGPMGLEELTSYKWVGKADYLIRS
notes: as for B2
Work on B5 yielded a Km (purified protein [6]) of 0.065 ± 0.023 mM.
